Peptide exchange yield data for 27 molecules are collected here from US20200087363A1 (IMMATICS BIOTECHNOLOGIES, published 2020).

The target in the experiment is T1, HLA-B*44:05 (human).
T1 construct: also called peptide-receptive MHC class I molecule
Briefly: UV peptide exchange, anti-b2m ELISA. The gist of the method:
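Peptide-receptive HLA-B*44:05 monomers after UV-induced exchange were diluted 100-fold and captured on streptavidin-coated plates for 1 h at 37 °C. Bound complexes were detected with 2 µg/ml HRP-anti-β2m (1 h, 37 °C) and TMB, read at 450 nm. β2m signal reflects peptide-stabilized complex yield.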
A general note: ELISA stands for enzyme-linked immunosorbent assay.

B1: REDPIVYEI (peptide)
peptide: REDPIVYEI
Molecule B1 registered a peptide exchange yield of 20 to 50%.

B2: SESDGIEQL (peptide)
peptide: SESDGIEQL
For B2, the peptide exchange yield fell in the range of 50 to 75%.

B3: AEAMGKFKQCF (peptide)
peptide: AEAMGKFKQCF
As for B3, the peptide exchange yield fell in the range of 50 to 75%.

B4: EEYKFPSLF (peptide)
peptide: EEYKFPSLF
Regarding B4, the peptide exchange yield was in the range of 50 to 75%.

B5: EESDYITHY (peptide)
peptide: EESDYITHY
The molecule B5 returned a peptide exchange yield of 50 to 75%.

B6: VEIVTIPSL (peptide)
peptide: VEIVTIPSL
In turn, B6 yielded a peptide exchange yield of 50 to 75%.

B7: EEVLLANALW (peptide)
peptide: EEVLLANALW
B7: the peptide exchange yield is 50 to 75%.

B8: QELFLQEVRM (peptide)
peptide: QELFLQEVRM
In the case of B8, the peptide exchange yield was in the range of 50 to 75%.

B9: QELMAFSFAGL (peptide)
peptide: QELMAFSFAGL
In turn, B9 displayed a peptide exchange yield greater than 75%.

B10: HEATFGEKRF (peptide)
peptide: HEATFGEKRF
Molecule B10 had a peptide exchange yield of 50 to 75%.

B11: EEMERDLDMY (peptide)
peptide: EEMERDLDMY
In the case of B11, the peptide exchange yield lay in the range of 50 to 75%.

B12: NEAEWQEIL (peptide)
peptide: NEAEWQEIL
In turn, B12 displayed a peptide exchange yield of 50 to 75%.

B13: GEYNKHAQLW (peptide)
peptide: GEYNKHAQLW
The molecule B13 returned a peptide exchange yield greater than 75%.

B14: REVDPDDSYVF (peptide)
peptide: REVDPDDSYVF
B14 displayed a peptide exchange yield of 50 to 75%.

B15: GEVQENYKL (peptide)
peptide: GEVQENYKL
Consider B15, for which the peptide exchange yield was 50 to 75%.

B16: EECGKAFRVF (peptide)
peptide: EECGKAFRVF
B16 yielded a peptide exchange yield of 50 to 75%.

B17: EECGKAFSVF (peptide)
peptide: EECGKAFSVF
Turning to B17, the peptide exchange yield is 50 to 75%.

B18: AENRVGKMEA (peptide)
peptide: AENRVGKMEA
Regarding B18, the peptide exchange yield was in the range of 20 to 50%.

B19: DEQRRQNVAY (peptide)
peptide: DEQRRQNVAY
Regarding B19, the peptide exchange yield was in the range of 20 to 50%.

B20: TEVSVLLLTF (peptide)
peptide: TEVSVLLLTF
Molecule B20 gave a peptide exchange yield of 50 to 75%.

B21: LDGIPTAGW (peptide)
peptide: LDGIPTAGW
Molecule B21 registered a peptide exchange yield of 50 to 75%.

B22: SELNPLALY (peptide)
peptide: SELNPLALY
Regarding B22, the peptide exchange yield lay within 50 to 75%.

B23: AEDARGWTA (peptide)
peptide: AEDARGWTA
Take B23: the peptide exchange yield is 20 to 50%.

B24: LEHPFLVNLW (peptide)
peptide: LEHPFLVNLW
As for B24, the peptide exchange yield was greater than 75%.

B25: KELEERMLHW (peptide)
peptide: KELEERMLHW
Take B25: the peptide exchange yield was greater than 75%.

B26: TESIGAQIY (peptide)
peptide: TESIGAQIY
The molecule B26 came in with a peptide exchange yield of 50 to 75%.

B27: NEIGQELTGQEW (peptide)
peptide: NEIGQELTGQEW
Molecule B27 showed a peptide exchange yield greater than 75%.
